{"source": "patent US20160159862A1", "about": "(PROTAGONIST THERAPEUTICS, published 2016)", "binders": {"B1": {"name": "SEQ ID NO 7 (peptide)", "peptide": "[Pen][NMeR]SDTL[Pen][dF]-NH2", "modifications": "disulfide 1-7 (inferred); not fully specified (N-terminus); printed as DIG-NH2-Pen-(N-Me-R)-S-D-T-L-Pen-f-NH2, disulfide; also: DIG-NH2 at N-terminus, probably DIG-linked dimer"}, "B2": {"name": "SEQ ID NO 66 (peptide)", "peptide": "Ac-[Pen][NMeR]SDTL[Pen]W[dE][dK]", "modifications": "disulfide 1-7 (inferred); not fully specified (residue 10); printed as Ac-Pen-(N-Me-R)-S-D-T-L-Pen-W-e-k-Ac"}, "B3": {"name": "SEQ ID NO 6 (peptide)", "peptide": "Diglycolyl-C[NMeR]SDTLCW-NH2", "modifications": "disulfide 1-7 (inferred); not fully specified; printed as DIG-NH2-C-(N-Me-R)-S-D-T-L-C-W-NH2"}, "B4": {"name": "SEQ ID NO 5 (peptide)", "peptide": "Ac-[dK]C[NMeR]SDTLCW[dK]-NH2", "modifications": "disulfide 2-8 (inferred); not fully specified; printed as DIG-(Ac-k-C-(N-Me-R)-S-D-T-L-C-W-k-NH2)2-DIG"}, "B5": {"name": "SEQ ID NO 65 (peptide)", "peptide": "Ac-[Pen][NMeR]SDTL[Pen]WE[dK]", "modifications": "disulfide 1-7 (inferred); not fully specified (residue 10); printed as Ac-Pen-(N-Me-R)-S-D-T-L-Pen-W-E-k-Ac"}, "B6": {"name": "SEQ ID NO 62 (peptide)", "peptide": "Ac-[Pen][NMeR]SDTL[Pen]WE[Dab]", "modifications": "disulfide 1-7 (inferred); not fully specified (residue 10); printed as Ac-Pen-(N-Me-R)-S-D-T-L-Pen-W-E-Dab-Ac"}, "B7": {"name": "SEQ ID NO 64 (peptide)", "peptide": "Ac-[Pen][NMeR]SDTL[Pen]W[dE][Dab]", "modifications": "disulfide 1-7 (inferred); not fully specified (residue 10); printed as Ac-Pen-(N-Me-R)-S-D-T-L-Pen-W-e-Dab-Ac"}}, "note": "Numbered stars: 1 amine (or outer) side, 2 acyl side, 3 side chain; on linkers, the order of the positions; unused ones are H or OH. Bridge positions count the residues as written; N and C are the ends. Square brackets hold non-standard residues; d marks the D form. Ends that are not written are not given here. Phe(4-OMe) = COc1ccc(C[C@H](N[*:1])C(=O)[*:2])cc1; Phe(4-COOH) = N[C@@H](Cc1ccc(C(=O)O)cc1)C(=O)O; Phe(2-CONH2) = NC(=O)c1ccccc1C[C@H](N)C(=O)O; 2Nal = N[C@@H](Cc1ccc2ccccc2c1)C(=O)O; Diglycolyl = O=C(COCC(=O)[*:2])[*:1]; NMeR = CN[C@@H](CCCNC(=N)N)C(=O)O; Tic = O=C(O)[C@@H]1Cc2ccccc2CN1; Cit = NC(=O)NCCC[C@H](N)C(=O)O; Pen = CC(C)(S)[C@H](N)C(=O)O; Dab = NCC[C@H](N)C(=O)O; Dap = NC[C@H](N)C(=O)O", "data": [{"biological_target": "α4β7 integrin on human cells (human, UniProt P13612 34-1032; P26010 20-798)", "assay": "cell-based or functional assay", "units": {"α4β7 cell (Hu) IC50": "nM"}, "values": [{"binder": "Ac-[Pen][NMeR]SDTL[Pen]WP[dK]-NH2 (disulfide 1-7 (inferred); also: homodimer linked by DIG)", "note": "[SEQ ID NO 94]", "α4β7 cell (Hu) IC50": "> 100"}, {"binder": "B1", "α4β7 cell (Hu) IC50": "> 1000"}, {"binder": "Ac-[Pen][NMeR]SDTL[Pen]W[Cit][dK]-NH2 (disulfide 1-7 (inferred); also: homodimer linked by DIG)", "note": "[SEQ ID NO 84]", "α4β7 cell (Hu) IC50": "> 10"}, {"binder": "Ac-[Pen][NMeR]SDTL[Pen]W[dY][dK]-NH2 (disulfide 1-7 (inferred); also: homodimer linked by DIG)", "note": "[SEQ ID NO 92]", "α4β7 cell (Hu) IC50": "> 50"}, {"binder": "Ac-[Pen][NMeR]SDTL[Pen][Tic][dE][dK]-NH2 (disulfide 1-7 (inferred); also: homodimer linked by DIG)", "note": "[SEQ ID NO 80]", "α4β7 cell (Hu) IC50": "> 50"}, {"binder": "B2", "α4β7 cell (Hu) IC50": "> 10000"}, {"binder": "Ac-[Pen][NMeR]SDTL[Pen][Phe(3,4-Cl)][dE][dK]-NH2 (disulfide 1-7 (inferred); also: dimer via DIG)", "note": "[SEQ ID NO 102]", "α4β7 cell (Hu) IC50": "> 100"}, {"binder": "B3", "α4β7 cell (Hu) IC50": "> 50"}, {"binder": "Ac-[Pen][NMeR]SDTL[Pen]WE[Dab]-NH2 (disulfide 1-7 (inferred))", "note": "[SEQ ID NO 61]", "α4β7 cell (Hu) IC50": "> 1000"}, {"binder": "Ac-[Pen][NMeR]SDTL[Pen]WE[Dab]-NH2 (disulfide 1-7 (inferred); also: homodimer linked by DIG)", "note": "[SEQ ID NO 97]", "α4β7 cell (Hu) IC50": "≤ 10"}, {"binder": "Ac-[Pen][NMeR]SDTL[Pen][Phe(4-COOH)][dE][dK]-NH2 (disulfide 1-7 (inferred); also: dimer via DIG)", "note": "[SEQ ID NO 100]", "α4β7 cell (Hu) IC50": "≤ 10"}, {"binder": "B4", "α4β7 cell (Hu) IC50": "> 50"}, {"binder": "Ac-[Pen][NMeR]SDTL[Pen][Phe(4-OMe)][dE][dK]-NH2 (disulfide 1-7 (inferred); also: dimer via DIG)", "note": "[SEQ ID NO 103]", "α4β7 cell (Hu) IC50": "> 25"}, {"binder": "XRSDTLXWK ((Ac-Pen-(N-Me-R)-S-D-T-L-Pen-W-(N-Me-K)-NH2)2-DIG; disulfide)", "note": "[SEQ ID NO 77]", "α4β7 cell (Hu) IC50": "> 100"}, {"binder": "Ac-[Pen][NMeR]SDTL[Pen]WQ[dK]-NH2 (disulfide 1-7 (inferred); also: homodimer linked by DIG)", "note": "[SEQ ID NO 82]", "α4β7 cell (Hu) IC50": "> 50"}, {"binder": "Ac-[Pen][NMeR]SDTL[Pen][Phe(3-carbamoyl)][dE][dK]-NH2 (disulfide 1-7 (inferred); also: homodimer linked by DIG)", "note": "[SEQ ID NO 99]", "α4β7 cell (Hu) IC50": "> 100"}, {"binder": "B5", "α4β7 cell (Hu) IC50": "> 10000"}, {"binder": "Ac-[Pen][NMeR]SDTL[Pen]W[dF][dK]-NH2 (disulfide 1-7 (inferred); also: homodimer linked by DIG)", "note": "[SEQ ID NO 91]", "α4β7 cell (Hu) IC50": "> 100"}, {"binder": "Ac-[Pen][NMeR]SDTL[Pen]WPK-NH2 (disulfide 1-7 (inferred); also: homodimer linked by DIG)", "note": "[SEQ ID NO 95]", "α4β7 cell (Hu) IC50": "> 100"}, {"binder": "B6", "α4β7 cell (Hu) IC50": "> 1000"}, {"binder": "Ac-[Pen][NMeR]SDTL[Pen]W[dE][Dab]-NH2 (disulfide 1-7 (inferred))", "note": "[SEQ ID NO 56]", "α4β7 cell (Hu) IC50": "> 500"}, {"binder": "Ac-[Pen][NMeR]SDTL[Pen]W[dE][Dap] (disulfide 1-7 (inferred); also: Ac written after C-terminal Dap, place unclear)", "note": "[SEQ ID NO 63]", "α4β7 cell (Hu) IC50": "> 1000"}, {"binder": "Ac-[Pen][NMeR]SDTLC[Tic][dE][dK]-NH2 (disulfide 1-7 (inferred); also: homodimer linked by DIG)", "note": "[SEQ ID NO 93]", "α4β7 cell (Hu) IC50": "> 500"}, {"binder": "Ac-[Pen][NMeR]SDTL[Pen][Phe(2-CONH2)][dE][dK]-NH2 (disulfide 1-7 (inferred); also: homodimer linked by DIG)", "note": "[SEQ ID NO 98]", "α4β7 cell (Hu) IC50": "> 50"}, {"binder": "XRSDTLXWK ((Ac-Pen-(N-Me-R)-S-D-T-L-Pen-W-k-OH)2-DIG; disulfide)", "note": "[SEQ ID NO 76]", "α4β7 cell (Hu) IC50": "> 10"}, {"binder": "Ac-[Pen][NMeR]SDTL[Pen][Phe(2,4-Cl)][dE][dK]-NH2 (disulfide 1-7 (inferred); also: dimer via DIG)", "note": "[SEQ ID NO 101]", "α4β7 cell (Hu) IC50": "> 50"}, {"binder": "Ac-[Pen][NMeR]SDTL[Pen]W[dE][dK]-NH2 (disulfide 1-7 (inferred); also: homodimer linked by IDA)", "note": "[SEQ ID NO 70]", "α4β7 cell (Hu) IC50": "> 25"}, {"binder": "Ac-[Pen][NMeR]SDTL[Pen]WN[dK]-NH2 (disulfide 1-7 (inferred); also: homodimer linked by DIG)", "note": "[SEQ ID NO 83]", "α4β7 cell (Hu) IC50": "> 50"}, {"binder": "Ac-[Pen][NMeR]SDTL[Pen]W[dE][Dap]-NH2 (disulfide 1-7 (inferred))", "note": "[SEQ ID NO 55]", "α4β7 cell (Hu) IC50": "> 100"}, {"binder": "Ac-[Pen][NMeR]SDTL[Pen]WE[Dap] (disulfide 1-7 (inferred); also: Ac written after C-terminal Dap, place unclear)", "note": "[SEQ ID NO 60]", "α4β7 cell (Hu) IC50": "> 1000"}, {"binder": "B7", "α4β7 cell (Hu) IC50": "> 1000"}, {"binder": "Ac-[Pen][NMeR]SDTL[Pen]WF[dK]-NH2 (disulfide 1-7 (inferred); also: homodimer linked by DIG)", "note": "[SEQ ID NO 85]", "α4β7 cell (Hu) IC50": "≤ 10"}, {"binder": "Ac-[Pen][NMeR]SDTL[Pen]W[dE][dK]-NH2 (disulfide 1-7 (inferred); also: homodimer linked by IDA, IDA-PEG4-Biotine)", "note": "[SEQ ID NO 72]", "α4β7 cell (Hu) IC50": "> 25"}, {"binder": "Ac-[Pen][NMeR]SDTL[Pen][2Nal]E-NH2 (disulfide 1-7 (inferred))", "note": "[SEQ ID NO 75]", "α4β7 cell (Hu) IC50": "> 50"}, {"binder": "Ac-[dK]C[NMeR]SDTLCW[dK]-NH2 (disulfide 2-8 (inferred); also: dimer joined by DIG)", "note": "[SEQ ID NO 4]", "α4β7 cell (Hu) IC50": "> 10"}, {"binder": "Ac-[Pen][NMeR]SDTL[Pen]W[dP]K-NH2 (disulfide 1-7 (inferred); also: homodimer linked by DIG)", "note": "[SEQ ID NO 96]", "α4β7 cell (Hu) IC50": "> 50"}, {"binder": "Ac-[Pen][NMeR]SDTL[Pen]W[dE][dK]-NH2 (disulfide 1-7 (inferred); also: homodimer linked by IDA, IDA-Biotine)", "note": "[SEQ ID NO 71]", "α4β7 cell (Hu) IC50": "> 25"}, {"binder": "Ac-[Pen][NMeR]SDTL[Pen]WE[Dap]-NH2 (disulfide 1-7 (inferred))", "note": "[SEQ ID NO 59]", "α4β7 cell (Hu) IC50": "> 10000"}, {"binder": "Ac-[Pen][NMeR]SDTL[Pen]WD[dK]-NH2 (disulfide 1-7 (inferred); also: homodimer linked by DIG)", "note": "[SEQ ID NO 87]", "α4β7 cell (Hu) IC50": "> 25"}]}]}
